Experimental data published in patent US20150080554A1.

How the values were obtained:
[1] = molecular target: polyclonal human IgG (Gammanorm, Octapharma) (human); experiment: gradient elution pH 6 to pH 3, 0.1 M citrate, from ligand-coupled agarose column
[2] = molecular target: polyclonal human IgG (Gammanorm, Octapharma) (human); experiment: breakthrough on ligand-coupled agarose column; 1 mg/ml IgG in 20 mM PBS + 0.15 M NaCl pH 7.4; residence time 6 min; ligand density 6.7 mg/ml
[3] = molecular target: polyclonal human IgG (Gammanorm, Octapharma) (human); experiment: breakthrough on ligand-coupled agarose column; 1 mg/ml IgG in 20 mM PBS + 0.15 M NaCl pH 7.4; residence time 2.4 min; ligand density 6.7 mg/ml
[4] = molecular target: mAb (Table 2, column 'pH mAb'); experiment: gradient elution pH 6 to pH 3, 0.1 M citrate, from ligand-coupled agarose column; about 10 mg cell culture supernatant loaded
[5] = molecular target: polyclonal human IgG (Gammanorm, Octapharma) (human); experiment: breakthrough on ligand-coupled agarose column; 1 mg/ml IgG in 20 mM PBS + 0.15 M NaCl pH 7.4; residence time 6 min; ligand density 6.9 mg/ml
[6] = molecular target: polyclonal human IgG (Gammanorm, Octapharma) (human); experiment: breakthrough on ligand-coupled agarose column; 1 mg/ml IgG in 20 mM PBS + 0.15 M NaCl pH 7.4; residence time 2.4 min; ligand density 6.9 mg/ml
[7] = molecular target: polyclonal human IgG (Gammanorm, Octapharma) (human); experiment: breakthrough on ligand-coupled agarose column; 1 mg/ml IgG in 20 mM PBS + 0.15 M NaCl pH 7.4; residence time 6 min; ligand density 5.3 mg/ml
[8] = molecular target: polyclonal human IgG (Gammanorm, Octapharma) (human); experiment: breakthrough on ligand-coupled agarose column; 1 mg/ml IgG in 20 mM PBS + 0.15 M NaCl pH 7.4; residence time 2.4 min; ligand density 5.3 mg/ml

Row | Substance | elution pH at peak apex, pH hIgG (first peak) [1] [pH] | elution pH at peak apex, pH hIgG (second peak) [1] [pH] | Qb10% (dynamic binding capacity at 10% breakthrough) [2] [mg/ml resin] | Qb80% (dynamic binding capacity at 80% breakthrough) [2] [mg/ml resin] | Qb10% (dynamic binding capacity at 10% breakthrough) [3] [mg/ml resin] | Qb80% (dynamic binding capacity at 80% breakthrough) [3] [mg/ml resin] | elution pH at peak apex, pH mAb [4] [pH] | Qb10% (dynamic binding capacity at 10% breakthrough) [5] [mg/ml resin] | Qb80% (dynamic binding capacity at 80% breakthrough) [5] [mg/ml resin] | Qb10% (dynamic binding capacity at 10% breakthrough) [6] [mg/ml resin] | Qb80% (dynamic binding capacity at 80% breakthrough) [6] [mg/ml resin] | Qb10% (dynamic binding capacity at 10% breakthrough) [7] [mg/ml resin] | Qb80% (dynamic binding capacity at 80% breakthrough) [7] [mg/ml resin] | Qb10% (dynamic binding capacity at 10% breakthrough) [8] [mg/ml resin] | Qb80% (dynamic binding capacity at 80% breakthrough) [8] [mg/ml resin]
1 | Comparative prototype Z(H18S)4 (designed binder) | 5.1 | 4.61 | 55 | 67.5 | 37 | 62.2 |  |  |  |  |  |  |  |  | 
2 | Mutant Z(H18S,N28A)4 (designed binder) | 5.68 | 5.15 |  |  |  |  | 5.05 | 45.9 | 59.1 | 35.2 | 56 |  |  |  | 
3 | Mutant Z(H18S,P57I)4 (designed binder) | 5.44 | 4.91 |  |  |  |  | 4.71 |  |  |  |  | 47 | 58 | 35.6 | 56
